In US20120172315A1 (CENTRE NATIONAL DE LA RECHERCHE SCIENTIFIQUE, published 2012):

Target: eIF4E in B lymphocytes from patients suffering from CLL (human (patients' cells);  for …, UniProt P06730 2-217, limits assumed)
Test: cell-based or functional assay

Chain of eIF4E in B lymphocytes from patients suffering from CLL (P06730 2-217 limits assumed): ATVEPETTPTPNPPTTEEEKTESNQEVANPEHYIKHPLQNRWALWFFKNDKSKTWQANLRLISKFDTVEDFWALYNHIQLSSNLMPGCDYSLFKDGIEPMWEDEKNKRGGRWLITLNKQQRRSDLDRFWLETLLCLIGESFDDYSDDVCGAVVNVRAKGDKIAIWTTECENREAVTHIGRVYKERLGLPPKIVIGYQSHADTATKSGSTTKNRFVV

RRKYGRDFLLRFRYIRS [A1 WT IRS peptide]
IC50, defined as the concentration of peptide capable of causing the death of 50% of the cells after 24 H (CLL cells): ~28 µM | IC50, defined as the concentration of peptide capable of causing the death of 50% of the cells after 24 H (CLL cells, second patient): 24 µM
